Test results: patent US20040077045A1

Molecular target: T1, HLA-DR13 (DRB1*1301), purified (human)
T1 chain 1: not shown
T1 chain 2: not shown
Assay: competition on purified HLA-DR (DRB1*1301) against biotinylated B1 21-36 (200 nM, pH 4.5); fluorescence assay

IC50: 390 nM
Binder: TERVRLVTRHIYNREE (modifications not checked) [B1 21-36 (…), unlabeled reference peptide]
